Reference: patent publication US20210077563A1 (VIB VZW, published 2021)

Biological target: the molecule itself
Assay: ESI-IMS-MS of colpeptin1 in 100 mM ammonium acetate buffer (self-association)

## RGLGLALVRRPRGLGLALVRR [Colpeptin1 (P2)]
  binding result: binds
